What was measured:
[1] = tested on: CC[n+]1c(-c2ccccc2)c2cc(N)ccc2c2ccc(N)cc21; test: cells, lysate or membranes; conditions: 50 mM KPi pH 7.0, 5 mM MgSO4, no proton-motive force, 0.25-10 µM ethidium bromide, non-expressing control subtracted
[2] = tested on: CC[n+]1c(-c2ccccc2)c2cc(N)ccc2c2ccc(N)cc21; test: facilitated ethidium influx in ATP-depleted cells, fluorimetry, hyperbolic fit; format: cell-based, Lactococcus lactis; conditions: 50 mM KPi pH 7.0, 5 mM MgSO4, no proton-motive force, 0.25-10 µM ethidium bromide, non-expressing control subtracted

In the case of LmrP (Lactococcus lactis), the Km [1] is reported as 0.92 ± 0.30 µM.
LmrP (Lactococcus lactis; K357A) gave a Km [2] of 1.42 ± 0.29 µM.
Substance LmrP (Lactococcus lactis; R260A) has a Km [2] of 1.49 ± 0.68 µM.
